From patent publication US10738094B2, “Peptides and combination of peptides for use in immunotherapy against ovarian cancer and other cancers” (immatics biotechnologies GmbH, priority 2015, dated 2020)

Target: HLA-A*02:01 (Homo sapiens, UniProt P04439, D140Y/D185E/D98H/E176V/E277Q/G131W/G231S/I119V/I121R/I166T/I218V/L300P/L318F/N151K/N90K/P208A/P217A/Q86G/Q94H/R138H/R169H/T345S)
Experiment: MHC binding assay (UV-ligand exchange, beta2m ELISA)
Conditions: binding to HLA-A*02:01 ranged by peptide exchange yield (UV-ligand exchange, β2m ELISA)
How it was run: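 UV-cleavable ligand in peptide-MHC complexes was exchanged for test peptide. Exchange yield came from an ELISA on streptavidin-captured complexes diluted 100 fold, detecting β2m with HRP anti-β2m (2 ug/ml, 1 h, 37° C.), TMB, A450.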

Peptide exchange	Substance
“+++” (≥50 = +++)	446 (QLIPALAKV; listed as Homo sapiens) [compound 446]
“++” (≥20% = ++)	447 (QLVPALAKV; listed as Homo sapiens) [compound 447]
“+++” (≥50 = +++)	448 (NLLETKLQL; listed as Homo sapiens) [compound 448]
“+++” (≥50 = +++)	449 (KLAEGLDIQL; listed as Homo sapiens) [compound 449]
“+++” (≥50 = +++)	450 (FMIDASVHPTL; listed as Homo sapiens) [compound 450]
“++” (≥20% = ++)	451 (LLLLDTVTMQV; listed as Homo sapiens) [compound 451]
“+++” (≥50 = +++)	452 (ILLEHGADPNL; listed as Homo sapiens) [compound 452]
“++” (≥20% = ++)	453 (KLLEATSAV; listed as Homo sapiens) [compound 453]
“+++” (≥50 = +++)	454 (KLPPPPPQA; listed as Homo sapiens) [compound 454]
“++” (≥20% = ++)	455 (SLLKEPQKVQL; listed as Homo sapiens) [compound 455]
“+++” (≥50 = +++)	456 (LLIGHLERV; listed as Homo sapiens) [compound 456]
“+++” (≥50 = +++)	457 (SLLPGNLVEKV; listed as Homo sapiens) [compound 457]
“++” (≥20% = ++)	458 (SLIDKLYNI; listed as Homo sapiens) [compound 458]
“++” (≥20% = ++)	459 (ALITEVVRL; listed as Homo sapiens) [compound 459]
“++” (≥20% = ++)	461 (VMFRTPLASV; listed as Homo sapiens) [compound 461]
“+++” (≥50 = +++)	462 (KLAKQPETV; listed as Homo sapiens) [compound 462]
“+++” (≥50 = +++)	463 (SLVESHLSDQLTL; listed as Homo sapiens) [compound 463]
“+++” (≥50 = +++)	464 (ALNDCIYSV; listed as Homo sapiens) [compound 464]
“+++” (≥50 = +++)	465 (QLCDLNAEL; listed as Homo sapiens) [compound 465]
“++++” (≥75% = ++++)	466 (VLIANLEKL; listed as Homo sapiens) [compound 466]
“+++” (≥50 = +++)	467 (FLAKDFNFL; listed as Homo sapiens) [compound 467]
“+++” (≥50 = +++)	468 (YLRSVGDGETV; listed as Homo sapiens) [compound 468]
“+++” (≥50 = +++)	469 (YLASDEITTV; listed as Homo sapiens) [compound 469]
“+++” (≥50 = +++)	471 (YLYNNMIAKI; listed as Homo sapiens) [compound 471]
“+++” (≥50 = +++)	472 (KLLEVSDDPQV; listed as Homo sapiens) [compound 472]
“+++” (≥50 = +++)	473 (AMATESILHFA; listed as Homo sapiens) [compound 473]

Peptide exchange	Substance
“+++” (≥50 = +++)	474 (YLDPALELGPRNV; listed as Homo sapiens) [compound 474]
“+++” (≥50 = +++)	475 (LLLNEEALAQI; listed as Homo sapiens) [compound 475]
“+++” (≥50 = +++)	476 (ALMERTGYSMV; listed as Homo sapiens) [compound 476]
“+++” (≥50 = +++)	477 (ALLPASGQIAL; listed as Homo sapiens) [compound 477]
“+++” (≥50 = +++)	478 (YLLHEKLNL; listed as Homo sapiens) [compound 478]
“+++” (≥50 = +++)	479 (SLFGNSGILENV; listed as Homo sapiens) [compound 479]
“+++” (≥50 = +++)	480 (ALLEDSCHYL; listed as Homo sapiens) [compound 480]
“+++” (≥50 = +++)	481 (GLIEDYEALL; listed as Homo sapiens) [compound 481]
“+++” (≥50 = +++)	484 (SLIEKVTQL; listed as Homo sapiens) [compound 484]
“+++” (≥50 = +++)	485 (NVPDSFNEV; listed as Homo sapiens) [compound 485]
“+++” (≥50 = +++)	486 (AVMESIQGV; listed as Homo sapiens) [compound 486]
“+++” (≥50 = +++)	487 (LLINSVFHV; listed as Homo sapiens) [compound 487]
“+++” (≥50 = +++)	488 (FLAEDPKVTL; listed as Homo sapiens) [compound 488]
“+++” (≥50 = +++)	490 (FLLQHVQEL; listed as Homo sapiens) [compound 490]
“++” (≥20% = ++)	491 (GLNDRSDAV; listed as Homo sapiens) [compound 491]
“+++” (≥50 = +++)	492 (SLFDGFADGLGV; listed as Homo sapiens) [compound 492]
“+++” (≥50 = +++)	493 (GLLGEKTQDLIGV; listed as Homo sapiens) [compound 493]
“++” (≥20% = ++)	494 (ALQPEPIKV; listed as Homo sapiens) [compound 494]
“+++” (≥50 = +++)	495 (FIFSEKPVFV; listed as Homo sapiens) [compound 495]
“+++” (≥50 = +++)	496 (FLVEKQPPQV; listed as Homo sapiens) [compound 496]
“+++” (≥50 = +++)	497 (GLLEKLTAI; listed as Homo sapiens) [compound 497]
“+++” (≥50 = +++)	498 (KLWTGGLDNTV; listed as Homo sapiens) [compound 498]
“+++” (≥50 = +++)	500 (SLMEDQVLQL; listed as Homo sapiens) [compound 500]
“+++” (≥50 = +++)	501 (LLDPNVKSIFV; listed as Homo sapiens) [compound 501]
“+++” (≥50 = +++)	502 (RLLAQVPGL; listed as Homo sapiens) [compound 502]
“+++” (≥50 = +++)	503 (SLNHFTHSV; listed as Homo sapiens) [compound 503]

Peptide exchange	Substance
“++” (≥20% = ++)	504 (GLSDGNPSL; listed as Homo sapiens) [compound 504]
“++” (≥20% = ++)	505 (SLAPGDVVRQV; listed as Homo sapiens) [compound 505]
“+++” (≥50 = +++)	506 (KLLGKVETA; listed as Homo sapiens) [compound 506]
“+++” (≥50 = +++)	507 (KLIDDQDISISL; listed as Homo sapiens) [compound 507]
“+++” (≥50 = +++)	508 (ILAQEQLVVGV; listed as Homo sapiens) [compound 508]
“+++” (≥50 = +++)	509 (FLFDTKPLIV; listed as Homo sapiens) [compound 509]
“++” (≥20% = ++)	510 (KLYSVVSQL; listed as Homo sapiens) [compound 510]
“+++” (≥50 = +++)	512 (SLSEIVPCL; listed as Homo sapiens) [compound 512]
“++” (≥20% = ++)	513 (SLWPSPEQL; listed as Homo sapiens) [compound 513]
“+++” (≥50 = +++)	514 (ILVDWLVQV; listed as Homo sapiens) [compound 514]
“+++” (≥50 = +++)	515 (LLQELVLFL; listed as Homo sapiens) [compound 515]
“++” (≥20% = ++)	516 (AVGPASILKEV; listed as Homo sapiens) [compound 516]
“+++” (≥50 = +++)	517 (LLMPIPEGLTL; listed as Homo sapiens) [compound 517]
“+++” (≥50 = +++)	518 (KLNAEVACV; listed as Homo sapiens) [compound 518]
“+++” (≥50 = +++)	519 (GLLHLTLLL; listed as Homo sapiens) [compound 519]
“+” (≥10% = +)	520 (LAVHPSGVAL; listed as Homo sapiens) [compound 520]
“+++” (≥50 = +++)	521 (MLLTKLPTI; listed as Homo sapiens) [compound 521]
“++” (≥20% = ++)	522 (TLWYRSPEV; listed as Homo sapiens) [compound 522]
“++” (≥20% = ++)	523 (YQIPRTFTL; listed as Homo sapiens) [compound 523]
“++” (≥20% = ++)	524 (ALIENLTHQI; listed as Homo sapiens) [compound 524]
“+++” (≥50 = +++)	525 (VLLEAGEGLVTI; listed as Homo sapiens) [compound 525]
“++” (≥20% = ++)	526 (RLAEVGQYEQV; listed as Homo sapiens) [compound 526]
“++++” (≥75% = ++++)	527 (FLLEPGNLEV; listed as Homo sapiens) [compound 527]
“+++” (≥50 = +++)	528 (SVAEGRALMSV; listed as Homo sapiens) [compound 528]
“+++” (≥50 = +++)	529 (LLADELITV; listed as Homo sapiens) [compound 529]
“+++” (≥50 = +++)	530 (VMYADIGGMDI; listed as Homo sapiens) [compound 530]
